# Source: patent publication US20260201029A1 (Janssen / Centocor, published 2026)
# Where two headings read alike, the source gives them in different places.
# T1: human FcγRIIa (human, UniProt P12318 36-218, limits assumed)
# T1 construct: His-tagged (captured on anti-his surface); construct and allele not described; also called hu-RIIa; FcgRIIa
# T1 sequence (looked up): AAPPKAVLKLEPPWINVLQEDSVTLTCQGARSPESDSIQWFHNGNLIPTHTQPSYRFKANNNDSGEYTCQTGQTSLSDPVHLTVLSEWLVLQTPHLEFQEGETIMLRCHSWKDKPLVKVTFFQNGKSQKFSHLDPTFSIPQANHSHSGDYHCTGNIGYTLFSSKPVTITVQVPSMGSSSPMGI
# T2: human FcγRIIb/c (human, UniProt P31994 46-217, limits assumed)
# T2 construct: His-tagged (captured on anti-his surface); construct not described; also called hu-RIIb/c; FcgRIIb
# T2 sequence (looked up): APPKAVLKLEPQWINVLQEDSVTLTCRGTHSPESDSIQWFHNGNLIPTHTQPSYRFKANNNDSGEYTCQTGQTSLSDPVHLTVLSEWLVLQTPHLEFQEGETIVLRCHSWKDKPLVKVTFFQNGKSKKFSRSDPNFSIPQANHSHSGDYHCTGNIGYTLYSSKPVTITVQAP
# B1: GC5B1552.AFU (antibody, human IgG1, kappa)
# chain: DKTHTCPPCPAPELLGGPSVFLFPPKPEDTLMISRTPEVTCVVVDVSHEDPEVKFNWYVDGVEVHNAKTKPREEQYNSTYRVVSVLTVLHQDWLNGKEYKCKVSNKALPAPIEKTISKAKGQPREPQVYTLPPSREEMTKNQVSLWCLVKGFYPSDIAVEWESNGQPENNYKTTPPVLDSDGSFFLYSKLTVDKSRWQQGNVFSCSVMHEALHNHYRQKSLSLSPGK
# heavy: not shown
# light: DIQMTQSPSSLSASVGDRVTITCRASQGIRNDLGWYQQKPGKAPKRLIYAASSLQSGVPSRFSGSGSGTEFTLTISSLQPEDFATYYCLQRNTYPLTFGGGTKVEIKRTVAAPSVFIFPPSDEQLKSGTASVVCLLNNFYPREAKVQWKVDNALQSGNSQESVTEQDSKDSTYSLSSTLTLSKADYEKHKVYACEVTHQGLSSPVTKSFNRGEC
# notes: expressed in a FUT8 knockout CHO host, so the Fc glycan is afucosylated; also called GC5B1552.AFU.003; GC5B1552.AFU.001
# B2: GC5B1552 (antibody)
# chain: B1 chain
# heavy: not shown
# light: B1 light
# notes: Monovalent JAWA (K248E/T437R) antibody as named without the .AFU suffix
# What was measured:
# human GPRC5D nanodisc [1] = target: T3, human GPRC5D nanodisc (human, UniProt Q9NZD1 1-345); test: SPR, antibody captured by anti-human Fc, GPRC5D-nanodisc injected, 1:1 fit
# T3 construct: Bought reagent; also called GPRC5D-nanodiscs (Acro, #GPD-H52D4)
# T3 sequence (Q9NZD1 whole entry): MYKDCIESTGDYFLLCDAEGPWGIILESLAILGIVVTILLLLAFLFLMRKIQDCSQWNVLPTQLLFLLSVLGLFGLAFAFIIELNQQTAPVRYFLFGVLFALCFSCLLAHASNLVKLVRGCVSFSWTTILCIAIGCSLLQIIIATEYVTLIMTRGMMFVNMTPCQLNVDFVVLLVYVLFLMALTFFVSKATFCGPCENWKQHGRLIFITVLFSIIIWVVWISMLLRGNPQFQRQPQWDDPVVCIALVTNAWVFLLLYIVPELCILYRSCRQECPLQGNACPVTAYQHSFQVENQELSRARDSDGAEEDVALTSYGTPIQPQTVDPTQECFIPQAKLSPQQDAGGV
# cyno GPRC5D nanodisc = cyno GPRC5D nanodisc (cynomolgus monkey); test: as above
# human GPRC5D nanodisc [2] = target: T3, human GPRC5D nanodisc; test: as above; remark: listed apart in the source
# [3] = target: T4, human GPRC5D (G-protein coupled receptor family C group 5 member D) (human, UniProt Q9NZD1 1-345); test: cell-based or functional assay
# T4 sequence (Q9NZD1 whole entry): as above
# [4] = target: T4, human GPRC5D (G-protein coupled …); test: cell-based or functional assay; remark: listed apart in the source
# cynomolgus FcγRIIb = target: T5, cynomolgus FcγRIIb (cynomolgus); test: SPR, receptor captured by anti-his, antibody injected, steady-state fit
# T5 construct: His-tagged (captured on anti-his surface); construct not described; also called cy-RIIb; FcgRIIb
# cynomolgus FcγRIIa = target: T6, cynomolgus FcγRIIa (cynomolgus); test: as above
# T6 construct: His-tagged (captured on anti-his surface); construct not described; also called cy-RIIa; FcgRIIa
# human FcγRIIa = target: T1, human FcγRIIa; test: as above
# human FcγRIIb/c = target: T2, human FcγRIIb/c; test: as above
# [5] = target: T7, human FcγRIIIa 158F allele (human, UniProt P08637 17-208); test: SPR, receptor captured by anti-his, antibody injected, 1:1 fit
# T7 construct: His-tagged (captured on anti-his surface); construct not described; also called Hu-RIIIaF; FcgRIIIa
# T7 sequence (P08637 17-208 limits assumed): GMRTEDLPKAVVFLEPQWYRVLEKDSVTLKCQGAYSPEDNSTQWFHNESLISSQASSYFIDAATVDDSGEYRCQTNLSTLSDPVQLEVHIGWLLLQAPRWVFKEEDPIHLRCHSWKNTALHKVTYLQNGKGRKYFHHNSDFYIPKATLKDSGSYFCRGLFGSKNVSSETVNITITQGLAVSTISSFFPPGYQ
# [6] = target: T8, human FcγRIIIa 158V allele (human, UniProt P08637 17-208); test: as above
# T8 construct: His-tagged (captured on anti-his surface); construct not described; The 158V allele differs from the 158F allele at that one position; also called Hu-RIIIa V; Hu-RIIIaV
# T8 sequence (P08637 17-208 F176V limits assumed): as the sequence (P08637 17-208 limits assumed) above, with F160V counted along it
# cynomolgus FcγRI = target: T9, cynomolgus FcγRI (cynomolgus); test: as above
# T9 construct: His-tagged (captured on anti-his surface); construct not described; also called cy-RI; FcgRI
# cynomolgus FcγRIII = target: T10, cynomolgus FcγRIII (cynomolgus, UniProt Q8SPW2 17-208, limits assumed); test: as above
# T10 construct: His-tagged (captured on anti-his surface); construct not described; also called cy-RIII; FcgRIII
# T10 sequence (Q8SPW2 17-208 limits assumed): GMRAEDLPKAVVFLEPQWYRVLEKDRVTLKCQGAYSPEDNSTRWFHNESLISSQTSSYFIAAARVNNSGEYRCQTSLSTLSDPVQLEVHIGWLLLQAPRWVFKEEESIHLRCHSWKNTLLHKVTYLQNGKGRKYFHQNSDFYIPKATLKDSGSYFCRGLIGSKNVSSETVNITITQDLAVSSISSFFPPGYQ
# human FcγRI = target: T11, human FcγRI (human, UniProt P12314 16-288, limits assumed); test: as above
# T11 construct: His-tagged (captured on anti-his surface); construct not described; also called hu-RI; FcgRI
# T11 sequence (P12314 16-288 limits assumed): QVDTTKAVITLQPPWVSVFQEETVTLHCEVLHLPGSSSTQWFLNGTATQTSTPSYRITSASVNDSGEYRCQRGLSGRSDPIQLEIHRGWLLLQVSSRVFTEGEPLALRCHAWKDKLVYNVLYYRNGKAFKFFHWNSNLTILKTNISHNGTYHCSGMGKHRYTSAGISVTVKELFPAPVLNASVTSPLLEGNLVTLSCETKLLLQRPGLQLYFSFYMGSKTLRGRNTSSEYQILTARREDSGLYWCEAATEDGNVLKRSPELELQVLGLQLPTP
# [7] = target: T4, human GPRC5D (G-protein coupled …); test: flow cytometry on H929 cells
# [8] = target: T4, human GPRC5D (G-protein coupled …); test: flow cytometry on MM1.R cells
binder,measurement,setting,value
B1,Kd,human GPRC5D nanodisc [1],77 nM
same,koff,human GPRC5D nanodisc [1],0.00169 s⁻¹
same,kon,human GPRC5D nanodisc [1],22000 M⁻¹ s⁻¹
same,Kd,cyno GPRC5D nanodisc,1880 nM
same,koff,cyno GPRC5D nanodisc,0.0179 s⁻¹
same,kon,cyno GPRC5D nanodisc,9520 M⁻¹ s⁻¹
same,Kd,human GPRC5D nanodisc [2],84 nM
same,koff,human GPRC5D nanodisc [2],0.00148 s⁻¹
same,kon,human GPRC5D nanodisc [2],18000 M⁻¹ s⁻¹
same,"ADCC EC50 (nM), CD138+ MM patient plasma cells, Sample 1",[3],0.007 nM
same,"ADCC EC50 (nM), CD138+ MM patient plasma cells, Sample 2",[3],0.09 nM
same,"ADCC EC50 (nM), CD138+ MM patient plasma cells, Sample 6",[3],0.04 nM
same,"ADCC EC50 (nM), CD138+ MM patient plasma cells, Sample 17",[3],0.64 nM
same,"CDC EC50 (nM), CD138+ MM patient plasma cells, Sample 6",[3],40.5 nM
same,"CDC EC50 (nM), CD138+ MM patient plasma cells, Sample 17",[3],35.5 nM
same,"ADCC EC50, AMO-1 cells, primary healthy donor human NK cells",[4],1.2 nM
same,"ADCC EC50, H929 cells, primary healthy donor human NK cells",[4],0.04 nM
same,"ADCC EC50, MM.1R cells, primary healthy donor human NK cells",[4],0.005 nM
same,"ADCP EC50, H929 cells, M1-macrophages",[4],0.05 nM
same,"ADCP EC50, MM.1R cells, M1-macrophages",[4],0.05 nM
same,"CDC EC50, AMO-1 cells, CellTiter-Glo, 40% human serum",[4],35.3 nM
same,"CDC EC50, JIM-3 cells, CellTiter-Glo, 40% human serum",[4],13.1 nM
same,"CDC EC50, MM.1R cells, CellTiter-Glo, 40% human serum",[4],8.77 nM
same,Fold increase in binding (vs wt IgG1 control),cynomolgus FcγRIIb,0.8 fold
same,Kd,cynomolgus FcγRIIb,5400 nM
same,Fold increase in binding (vs wt IgG1 control),cynomolgus FcγRIIa,0.9 fold
same,Kd,cynomolgus FcγRIIa,8820 nM
same,Fold increase in binding (vs wt IgG1 control),human FcγRIIa,2.5 fold
same,Kd,human FcγRIIa,3710 nM
same,Fold increase in binding (vs wt IgG1 control),human FcγRIIb/c,1 fold
same,Kd,human FcγRIIb/c,11600 nM
same,Fold increase in binding (vs wt IgG1 control),[5],50.7 fold
same,Kd,[5],75 nM
same,koff,[5],0.167 s⁻¹
same,kon,[5],2.24e+06 M⁻¹ s⁻¹
same,Fold increase in binding (vs wt IgG1 control),[6],111 fold
same,Kd,[6],8.1 nM
same,koff,[6],0.0232 s⁻¹
same,kon,[6],2.85e+06 M⁻¹ s⁻¹
same,Fold increase in binding (vs wt IgG1 control),cynomolgus FcγRI,1.5 fold
same,Kd,cynomolgus FcγRI,1 nM
same,koff,cynomolgus FcγRI,0.000659 s⁻¹
same,kon,cynomolgus FcγRI,647000 M⁻¹ s⁻¹
same,Fold increase in binding (vs wt IgG1 control),cynomolgus FcγRIII,33.2 fold
same,Kd,cynomolgus FcγRIII,11.9 nM
same,koff,cynomolgus FcγRIII,0.034 s⁻¹
same,kon,cynomolgus FcγRIII,2.86e+06 M⁻¹ s⁻¹
same,Fold increase in binding (vs wt IgG1 control),human FcγRI,2.2 fold
same,Kd,human FcγRI,1.3 nM
same,koff,human FcγRI,0.000738 s⁻¹
same,kon,human FcγRI,567000 M⁻¹ s⁻¹
B2,EC50,[7],1.3 nM
same,EC50,[8],3.2 nM
